The source of these data is PMC6895266, “Zika virus NS3 is a canonical RNA helicase stimulated by NS5 RNA polymerase”.

For series [1], the target named is ZIKV NS5, purified recombinant (UniProt A0A024B7W1). Briefly: co-immunoprecipitation (IP Myc) with purified proteins, western blot quantification. To be noted: parent: est. 1.0; read off a plot.
Series [2] deals with NS3F (full-length NS3) WT (Zika virus, UniProt A0A2D0WX26 1504-2119). In words: fluorescence polarization; 5 mM MgCl2, no ATP. To be noted: protein: recombinant; tags: His; Myc (anti-myc blot); label: Cy3 (printed before the 5' end); single strand.

In the case of “ZIKV full-length NS3 (NS3F, residues 2-617), purified recombinant N569A; E573A”, in series [1], the ratio to parent stood at 0.16.
Consider GCGUCUUUACGGUGCU (ssRNA) [Cy3-ssRNA 16-mer], for which the Kd in series [2] was found to be 99 ± 7 nM.
